Measurements: paper PMC6675082

Target: NpDps4 (Dps4 from Nostoc punctiforme ATCC 29133) (Nostoc punctiforme ATCC 29133)
Experiment: crystal structure; sitting-drop vapour diffusion, 25% SOKALAN HP 66, 0.1 M HEPES pH 7.0, 0.2 M NaOAc, room temperature; metal-free, Fe2+-soaked and Zn2+-soaked crystals; four molecules in the asymmetric unit, a third of the dodecameric hollow sphere

- stoichiometry N: 12
Substance: NpDps4 (Dps4 from Nostoc punctiforme ATCC 29133) (natural protein)
